Test results reported in patent US7501552 (GENPHARM INTERNATIONAL, dated 2009).

Experiments:
Assay in all cases: flow cytometry on peripheral blood lymphocytes
[1] = target: T1, cynomolgus monkey CD4 on lymphocytes (cynomolgus monkey, UniProt P79185 26-458)
T1 construct: whole, on cells; also called cynomolgus CD4 cells
Experimental: (§1) It is further desirable for some purposes that the animal be a non-human primate that expresses CD4 comprising a cross-reactive epitope with human CD4 such that it is recognized by the monoclonal antibody. […] Peripheral blood lymphocytes were isolated from whole blood of chimpanzee, rhesus, and cynomolgus monkeys. […] The stained cells were then analyzed by flow cytometry to determine if each of the human monoclonal antibodies bound to endogenous CD4 on the surface of lymphocytes from each of these three non-human primates.

[2] = target: T2, rhesus monkey CD4 on lymphocytes (rhesus monkey, UniProt P16003 26-458)
T2 construct: whole, on cells; also called rhesus CD4 cells
Experimental: as §1

[3] = target: T3, chimpanzee CD4 on lymphocytes (chimpanzee, UniProt P16004 26-458)
T3 construct: whole, on cells; also called chimpanzee CD4 cells
Experimental: as §1

Measured: binding result

T3 sequence (P16004 26-458): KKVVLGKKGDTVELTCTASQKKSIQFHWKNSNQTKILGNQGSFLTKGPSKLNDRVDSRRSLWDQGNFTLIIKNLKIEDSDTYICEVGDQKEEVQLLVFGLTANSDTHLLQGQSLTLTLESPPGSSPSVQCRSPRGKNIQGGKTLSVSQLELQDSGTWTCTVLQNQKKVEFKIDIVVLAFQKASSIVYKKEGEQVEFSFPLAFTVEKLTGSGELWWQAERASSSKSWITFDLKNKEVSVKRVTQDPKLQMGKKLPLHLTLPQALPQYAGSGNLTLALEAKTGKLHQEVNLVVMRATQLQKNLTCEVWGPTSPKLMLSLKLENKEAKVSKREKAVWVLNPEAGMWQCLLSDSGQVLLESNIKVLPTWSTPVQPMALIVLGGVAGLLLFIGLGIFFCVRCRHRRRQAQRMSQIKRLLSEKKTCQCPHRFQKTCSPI
T2 sequence (P16003 26-458): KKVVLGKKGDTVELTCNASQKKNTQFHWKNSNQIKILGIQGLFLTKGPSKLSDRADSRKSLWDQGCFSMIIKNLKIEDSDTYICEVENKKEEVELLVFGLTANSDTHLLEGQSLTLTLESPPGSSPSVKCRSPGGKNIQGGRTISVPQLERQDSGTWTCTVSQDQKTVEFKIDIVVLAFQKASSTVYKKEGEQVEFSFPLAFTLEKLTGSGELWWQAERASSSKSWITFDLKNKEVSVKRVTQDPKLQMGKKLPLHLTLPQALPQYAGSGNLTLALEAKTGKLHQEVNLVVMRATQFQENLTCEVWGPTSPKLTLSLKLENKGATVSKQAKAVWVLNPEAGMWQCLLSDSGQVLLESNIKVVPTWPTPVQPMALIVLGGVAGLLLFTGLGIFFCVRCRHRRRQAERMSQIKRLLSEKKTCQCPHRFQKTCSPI
T1 sequence (P79185 26-458): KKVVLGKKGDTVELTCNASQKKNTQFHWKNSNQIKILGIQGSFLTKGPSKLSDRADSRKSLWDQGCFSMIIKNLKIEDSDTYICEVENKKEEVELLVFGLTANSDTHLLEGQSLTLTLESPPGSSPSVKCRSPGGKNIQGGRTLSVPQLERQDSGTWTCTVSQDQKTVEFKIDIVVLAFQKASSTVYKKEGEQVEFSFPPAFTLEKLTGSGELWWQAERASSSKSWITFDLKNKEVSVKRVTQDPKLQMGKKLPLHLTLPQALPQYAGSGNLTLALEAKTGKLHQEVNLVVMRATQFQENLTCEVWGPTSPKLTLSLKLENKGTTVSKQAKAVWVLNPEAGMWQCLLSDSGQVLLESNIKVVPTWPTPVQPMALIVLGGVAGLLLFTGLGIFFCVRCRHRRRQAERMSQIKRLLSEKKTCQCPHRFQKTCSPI

B1: 4D1 (antibody, V domains shown)
VH: EVQLVQSGAEVKKPGESLKISCKGSGYSFTGYWIGWVRQMPGKGLEWMGIIYPGDSDTTYSPSFQGQVTISADKSISTAYLQWSSLKASDTAMYYCARDQLGLFDYWGQGTLVTVSS
VL: DIQMTQSPSSLSASVGDRVTITCRASQGISSWLAWYQQKPEKAPKSLIYSASSLQSGVPSRFSGSGSGTDFTLTISSLQPEDFATYYCQQYDSYPYTFGQGTKLEIK
notes: human IgG1 kappa from hybridoma; h.c; VH5-51, DHQ52, JH4; VkL15, Jk2; also called 4D1.4
binds: all assays above
